According to publication PMC48140 (BMC Cell Biology, 2001):

Biological target: the molecule itself
Experiment: SDS-PAGE with immunoblot

B1: MP20, lens fiber cell membrane protein (natural protein, ovine, UniProt A0ACI6P5E9 1-173, looked up)
chain: MYSFMGGGLFCAWVGTILLVVATATDHWMQYRLSGAFAHQGLWRYCLGTKCYLQTESIAYWNATRAFMILSSLCATSGIIMGIVAFAQQPTFTRLSRPFSAGIMFFASTFFVLLALAIYTGVTVSFLGRRFGDWRFSWSYILGWVALLMTFFAGIFYMCAYRMHECRRLSTPR
In the case of B1, the “stoichiometry N” value is reported as 2.
